Measurements: publication PMC8392593

How the values were obtained:
UBE2L3 (Homo sapiens) = UBE2L3 (Homo sapiens) (UniProt P68036); assay: SPR; conditions: cited from earlier work
[1] = molecular target: MuRF1 in fusion with the binding domain of GAL4 (pBridge, MCS I) (rat) (UniProt Q91Z63); assay: two-hybrid; Matchmaker Gold yeast two-hybrid; MuRF1 alone as GAL4 binding-domain fusion, preys in pGADT7; growth of diploid clones on -LTH + Aureobasidin A + 3-AT followed over 21 days
[2] = molecular target: MuRF1 in fusion with the binding domain of GAL4 (pBridge, MCS I) (rat) (UniProt Q91Z63); assay: two-hybrid; yeast three-hybrid; pBridge::MuRF1/MHCIIa (MuRF1 GAL4 binding-domain fusion with MHCIIa residues 1–255 co-expressed from MCSII), preys in pGADT7; growth on -LTH + Aureobasidin A + 3-AT followed over 21 days

Substance	Kd (UBE2L3 (Homo sapiens))	percentage of clones grown on selective media [1]	percentage of clones grown on selective media [2]
MuRF1 (from UniProt Q969Q1)	50 nM	–	–
UBE2E1 in pGADT7 (GAL4 activation domain fusion) (from UniProt P52482 1-193) (enzyme)	–	80%	80%
